# Assay results from article PMC10299496, “Effect of Chemical Chaperones on the Stability of Proteins during Heat– or Freeze–Thaw Stress” (International Journal of Molecular Sciences, 2023).
# “And” between values parts separate entries of the source, which are not always exact repeats. Equal values may be shown once.
# Columns and labels:
# [1] = target: the molecule itself; test: AUC; sedimentation velocity, c(M) distributions; Phb 0.35 mg/mL pre-heated 40 min at 48 °C with or without HPCD, Tre or Bet, cooled 2 min in ice water; run at 25 °C, 48,000 rpm, 0.03 M HEPES pH 6.8, 0.15 M NaCl
# [2] = target: the molecule itself; test: AUC; sedimentation velocity, c(M) distributions; GDH 0.2 mg/mL pre-heated 10 min at 50 °C with or without HPCD, Sorb, Tre or Bet, then cooled; run at 25 °C, 48,000 rpm, 0.1 M Na-phosphate pH 7.6, 0.01 M NaCl
Protein,stoichiometry N [1],stoichiometry N [2]
"Glycogen phosphorylase b from rabbit skeletal muscle (enzyme, UniProt P00489 1-843, looked up, glycogen phosphorylase b (muscle form), rabbit skeletal muscle; dimer of two identical subunits of 97.4 kDa; also called Phb; Phbfr (frozen-thawed Phb)) MSRPLSDQEKRKQISVRGLAGVENVTELKKNFNRHLHFTLVKDRNVATPRDYYFALAHTVRDHLVGRWIRTQQHYYEKDPKRIYYLSLEFYMGRTLQNTMVNLALENACDEATYQLGLDMEELEEIEEDAGLGNGGLGRLAACFLDSMATLGLAAYGYGIRYEFGIFNQKICGGWQMEEADDWLRYGNPWEKARPEFTLPVHFYGRVEHTSQGAKWVDTQVVLAMPYDTPVPGYRNNVVNTMRLWSAKAPNDFNLKDFNVGGYIQAVLDRNLAENISRVLYPNDNFFEGKELRLKQEYFVVAATLQDIIRRFKSSKFGCRDPVRTNFDAFPDKVAIQLNDTHPSLAIPELMRVLVDLERLDWDKAWEVTVKTCAYTNHTVLPEALERWPVHLLETLLPRHLQIIYEINQRFLNRVAAAFPGDVDRLRRMSLVEEGAVKRINMAHLCIAGSHAVNGVARIHSEILKKTIFKDFYELEPHKFQNKTNGITPRRWLVLCNPGLAEIIAERIGEEYISDLDQLRKLLSYVDDEAFIRDVAKVKQENKLKFAAYLEREYKVHINPNSLFDVQVKRIHEYKRQLLNCLHVITLYNRIKKEPNKFVVPRTVMIGGKAAPGYHMAKMIIKLITAIGDVVNHDPVVGDRLRVIFLENYRVSLAEKVIPAADLSEQISTAGTEASGTGNMKFMLNGALTIGTMDGANVEMAEEAGEENFFIFGMRVEDVDRLDQRGYNAQEYYDRIPELRQIIEQLSSGFFSPKQPDLFKDIVNMLMHHDRFKVFADYEEYVKCQERVSALYKNPREWTRMVIRNIATSGKFSSDRTIAQYAREIWGVEPSRQRLPAPDEKIP",2 and 4,
"Glutamate dehydrogenase from bovine liver (enzyme, glutamate dehydrogenase, bovine liver; homohexamer of six identical subunits of 56-57 kDa; also called GDH; GDHfr (frozen-thawed GDH)) not shown",,6 and 2
